Drawing on PMC4018492 (Genes & Development, 2014), this text covers binding result and Kd for three molecules.

By Kd is commonly meant the concentration at which binding is half-saturated. Higher therefore signals a looser complex.

The target of experiment [1] is T1, WDR5_(23–334) (human, UniProt P61964 23-334). Kind of experiment: SEC.
Experiment [2] has as its target 6xHis-WDR5 (residues 23–334) (human, UniProt P61964 23-334). The experiment is described as follows: pull-down.
Experiment [3] concerns the target T1, WDR5_(23–334). Kind of experiment: ITC.

B1: KANSL2_(381–492) (domain or fragment)
chain: DDLEAGPMDLYLSAAELQPTESLPLEFSDDLDVVGDGMQCPPSPLLFDPSLTLEDHLVKEIAEDPVDILGQMQMAGDGCRSQGSRNSEKASAPLSQSGLATANGKPEPTSIS
B1: in the experiment with WDR5_(23–334) [1], the binding result is “binds”.

B2: KANSL1_(537–773) (domain or fragment)
chain: KSCGALRPVNGVINTLQPVLADHIPGDSSDAEEQLHKKQRLNLVSSSSDGTCVAARTRPVLSCKKRRLVRPNSIVPLSKKVHRNSTIRPGCDVNPSCALCGSGSINTMPPEIHYEAPLLERLSQLDSCVHPVLAFPDDVPTSLHFQSMLKSQWQNKPFDKIKPPKKLSLKHRAPMPGSLPDSARKDRHKLVSSFLTTAKLSHHQTRPDRTHRQHLDDVGAVPMVERVTAPKAERLLN
Take B2: the binding result in experiment [2] was “binds”. For DGTCVAARTRPVLSY [KANSL1 WIN motif-containing peptide (585-DGTCVAARTRPVLS-598-Y)], the affinity in the experiment with WDR5_(23–334) [3], expressed as Kd, was 180 nM. This counts as sub-micromolar.
